1 substance from patent US20060205646A1 can be followed below.

For this experiment, the target named is MMPs in infected porcine wound fluid. Kind of experiment: cell-based or functional assay.

“γ-D-crystallin (from UniProt P07320 2-174)” had an inhibition of MMP activity (Fluorogenic Peptide Substrate I), 0.4 mg/mL γ-D-crystallin of 50%.
